Test results reported in patent US20160145657A1, “Methods and Materials for Producing 7-Carbon Chemicals via a C9 Route” (INVISTA North America S.á.r.l., priority 2014, published 2016).

How the values were obtained:
Assay type in all cases: biochemical
[1] = carboxylate reductase activity, pimelate to pimelate semialdehyde, NADPH consumption at 340 nm; conditions: purified enzyme enhanced by sfp gene product, 2 mM pimelate, pH 7.5, room temperature, 20 min; FIG. 8
Protocol: A nucleotide sequence encoding a HIS-tag was added to the nucleic acid sequences from Segniliparus rugosus and Segniliparus rotundus that encode the carboxylate reductases of SEQ ID NOs: 4 (EFV11917.1) and 6 (ADG98140.1), respectively (see FIG. 6), such that N-terminal HIS tagged carboxylate reductases could be produced. Each of the modified genes was cloned into a pET Duet expression vector along with a sfp gene encoding a HIS-tagged phosphopantetheine transferase from Bacillus subtilis, both under the T7 promoter. Each expression vector was transformed into a BL21[DE3] E. coli host and the resulting recombinant E. coli strains were cultivated at 37° C. in a 250 mL shake flask culture containing 50 mL LB media and antibiotic selection pressure, with shaking at 230 rpm. Each culture was induced overnight at 37° C. using an auto-induction media.
The pellet from each induced shake flask culture was harvested via centrifugation. Each pellet was resuspended and lysed via sonication, and the cell debris was separated from the supernatant via centrifugation. […]
Enzyme activity assays (i.e., from pimelate to pimelate semialdehyde) were performed in triplicate in a buffer composed of a final concentration of 50 mM HEPES buffer (pH=7.5), 2 mM pimelate, 10 mM MgCl2, 1 mM ATP and 1 mM NADPH. […] The consumption of NADPH was monitored by absorbance at 340 nm. […]

[2] = carboxylate reductase activity, N7-acetyl-7-aminoheptanoate to N7-acetyl-7-aminoheptanal, NADPH consumption at 340 nm; conditions: purified enzyme enhanced by sfp gene product, 2 mM N7-acetyl-7-aminoheptanoate, pH 7.5, room temperature, 20 min; FIG. 10
Protocol: The activity of each of the N-terminal His-tagged carboxylate reductases of SEQ ID NOs: 3, 5, and 6 (see Examples 2 and 3, and FIG. 6) for converting N7-acetyl-7-aminoheptanoate to N7-acetyl-7-aminoheptanal was assayed in triplicate in a buffer composed of a final concentration of 50 mM HEPES buffer (pH=7.5), 2 mM N7-acetyl-7-aminoheptanoate, 10 mM MgCl2, 1 mM ATP, and 1 mM NADPH. The assays were initiated by adding purified carboxylate reductase and phosphopantetheine transferase or the empty vector control to the assay buffer containing the N7-acetyl-7-aminoheptanoate then incubated at room temperature for 20 min. The consumption of NADPH was monitored by absorbance at 340 nm.

[3] = carboxylate reductase activity, pimelate semialdehyde to heptanedial, NADPH consumption at 340 nm; conditions: purified enzyme enhanced by sfp gene product, 2 mM pimelate semialdehyde, pH 7.5, room temperature, 20 min; FIG. 11
Protocol: The N-terminal His-tagged carboxylate reductase of SEQ ID NO: 6 (see Example 3 and FIG. 6) was assayed using pimelate semialdehyde as substrate. The enzyme activity assay was performed in triplicate in a buffer composed of a final concentration of 50 mM HEPES buffer (pH=7.5), 2 mM pimelate semialdehyde, 10 mM MgCl2, 1 mM ATP and 1 mM NADPH. The enzyme activity assay reaction was initiated by adding purified carboxylate reductase and phosphopantetheine transferase or the empty vector control to the assay buffer containing the pimelate semialdehyde and then incubated at room temperature for 20 min. The consumption of NADPH was monitored by absorbance at 340 nm.

- acceptance of pimelate as substrate (NADPH consumption) against the empty vector control [1]: accepted pimelate as substrate
B1: SEQ ID NO: 6: Segniliparus rotundus carboxylate reductase, Genbank Accession No. ADG98140.1 (protein)
chain: MTQSHTQGPQASAAHSRLARRAAELLATDPQAAATLPDPEVVRQATRPGLRLAERVDAILSGYADRPALGQRSFQTVKDPITGRSSVELLPTFDTITYRELRERATAIASDLAHHPQAPAKPGDFLASIGFISVDYVAIDIAGVFAGLTAVPLQTGATLATLTAITAETAPTLFAASIEHLPTAVDAVLATPSVRRLLVFDYRAGSDEDREAVEAAKRKIADAGSSVLVDVLDEVIARGKSAPKAPLPPATDAGDDSLSLLIYTSGSTGTPKGAMYPERNVAHFWGGVWAAAFDEDAAPPVPAINITFLPLSHVASRLSLMPTLARGGLMHFVAKSDLSTLFEDLKLARPTNLFLVPRVVEMLYQHYQSELDRRGVQDGTREAEAVKDDLRTGLLGGRILTAGFGSAPLSAELAGFIESLLQIHLVDGYGSTEAGPVWRDGYLVKPPVTDYKLIDVPELGYFSTDSPHPRGELAIKTQTILPGYYKRPETTAEVFDEDGFYLTGDVVAQIGPEQFAYVDRRKNVLKLSQGEFVTLAKLEAAYSSSPLVRQLFVYGSSERSYLLAVIVPTPDALKKFGVGEAAKAALGESLQKIARDEGLQSYEVPRDFIIETDPFTVENGLLSDARKSLRPKLKEHYGERLEAMYKELADGQANELRDIRRGVQQRPTLETVRRAAAAMLGASAAEIKPDAHFTDLGGDSLSALTFSNFLHDLFEVDVPVGVIVSAANTLGSVAEHIDAQLAGGRARPTFATVHGKGSTTIKASDLTLDKFIDEQTLEAAKHLPKPADPPRTVLLTGANGWLGRFLALEWLERLAPAGGKLITIVRGKDAAQAKARLDAAYESGDPKLAGHYQDLAATTLEVLAGDFSEPRLGLDEATWNRLADEVDFISHPGALVNHVLPYNQLFGPNVAGVAEIIKLAITTRIKPVTYLSTVAVAAGVEPSALDEDGDIRTVSAERSVDEGYANGYGNSKWGGEVLLREAHDRTGLPVRVFRSDMILAHQKYTGQVNATDQFTRLVQSLLATGLAPKSFYELDAQGNRQRAHYDGIPVDFTAESITTLGGDGLEGYRSYNVFNPHRDGVGLDEFVDWLIEAGHPITRIDDYDQWLSRFETSLRGLPESKRQASVLPLLHAFARPGPAVDGSPFRNTVFRTDVQKAKIGAEHDIPHLGKALVLKYADDIKQLGLL
- acceptance of N7-acetyl-7-aminoheptanoate as substrate (NADPH consumption) against the empty vector control [2]: accepted N7-acetyl-7-aminoheptanoate as substrate
- acceptance of pimelate semialdehyde as substrate (NADPH consumption) against the empty vector control [3]: accepted pimelate semialdehyde as substrate
